# Experimental data from a protein production outcome set (Wang et al. 2014).
# Experiment: label from the status in PepcDB records
# 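Further: failed if final PepcDB status was selected cloned or expressed and not failed if soluble or beyond.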
row,Sequence,protein production
1,MSSSSSVPAYLGDEDLTQETRALISSLPKEKGWLVSEIYEFQGLWHTQAILQGILICQKRFEAKDSDIILVTNPKSGTTWLKALVFALLNRHKFPVSSSGNHPLLVTNPHLLVPFLEGVYYESPDFDFSSLPSPRLMNTHISHLSLPESVKSSSCKIVYCCRNPKDMFVSLWHFGKKLAPEETADYPIEKAVEAFCEGKFIGGPFWDHILEYWYASRENPNKVLFVTYEELKKQTEVEMKRIAEFLECGFIEEEEVREIVKLCSFESLSNLEVNKEGKLPNGIETKTFFRKGEIGGWRDTLSESLAEEIDRTIEEKFKGSGLKFSS,not failed
2,PRMIVFGAIDFASALARAGKFLGHHVTVCDARPVFATPARFPDADEVVVEWPHEYLARTAVDARTVLCVLTHDAKFDIPLLRLALRLPVAYVGAMGSRRTHLDRAARLREAGV,failed
3,MSSSGIEIAKPFVTATTNVLSTMAGIQPIPGQPYVKKNNVAKGDVSAVVGITGHKNGSISVTFTKQCAIAVVKAMLGDDIQDIIQDTKDAVGEVTNMISGQARAALSEMGMTFQGATPSVIMGDGHTISHVTKSPVIAIPFKTNHGEFTVEFCLE,not failed
4,MARGELPRASISDTIPMTMASIDAGSVRFTARADKRHLNPLGGVHGGFAATVLDSVTGCAIHSILEAGVGYGTVDLSVKRVKAVPEDTPLVAEGRVLHVPCAIGSQRADLMLAPPRLGRDRRCPAGHAPAGAARAACAPQGRLTPMRRPLNAAPAARRCGRTGTDRSRAPGRACAAPWSSAC,failed
5,MTKGSLSGLPRENIELPDGSVLRRRSLVSDDAFIDAVTADVGHLGEWLRWARHPPTREETERFRAEQDADWDAGRSFVYVLTPPDRHDQVLGGGAMFPNGEVGVLEIGYWVCSPATGRGLATRAAAALTEEGLGLPGVKAMEIHCDRANARSAAIPPRIGYRLLRIEADEPQTVAEAGRSMVWRHDGA,failed
6,MDRECERDPYYDDLKVAKRAIEQMEMVAMMEGIPKFCPCGGSIVDTRKDEKRYYQCEKFKDDRTDLMHIRKLWDKAMEEEVSSLRESVDYNRKKVLSHEYLIEEMQKELKAHRAEIVNVSKVVFRNPMAPKK,failed
7,MRSAAVLALLLCAGQVTALPVNSPMNKGDTEVMKCIVEVISDTLSKPSPMPVSQECFETLRGDERILSILRHQNLLKELQDLALQGAKERAHQQKKHSGFEDELSEVLENQSSQAELKEAVEEPSSKDVMEKREDSKEAEKSGEATDGARPQALPEPMQESKAEGNNQAPGEEEEEEEEATNTHPPASLPSQKYPGPQAEGDSEGLSQGLVDREKGLSAEPGWQAKREEEEEEEEEAEAGEEAVPEEEGPTVVLNPHPSLGYKEIRKGESRSEALAVDGAGKPGAEEAQDPEGKGEQEHSQQKEEEEEMAVVPQGLFRGGKSGELEQEEERLSKEWEDSKRWSKMDQLAKELTAEKRLEGQEEEEDNRDSSMKLSFRARAYGFRGPGPQLRRGWRPSSREDSLEAGLPLQVRGYPEEKKEEEGSANRRPEDQELESLSAIEAELEKVAHQLQALRRG,failed
8,MCSNNNTSSGSYGELQLHDESSGSCRKKQKKDKVRRRGPGVAELEKIRLQEEYKPPLSSSPSLPNIDHHHHTLFAPASSVYDLVMTSPNFSFPEKLASTLPVFPISPDATQNRSMGITPVQETGTTTSNPIAIDSPTSIPRHYPRFIPLGLQYEQQQQKLKDLDETMQWRSKKPFYSFIPSGDPSNDDQEQRPCDLFGSAADHGIDLNLKL,failed
9,FVNTFIQFKKPIIVAVNGPAIGLGASILPLCDVVWANEKAWFQTPYTTFGQSPDGCSTVMFPKIMGGASANEMLLSGRKLTAQEACGKGLVSQVFWPGTFTQEVMVRIKELASCNPVVLEESKALVRCNMKMELEQANERECEVLKKIWGSAQGMDSMLKYLQRKIDEF,failed
10,MSKIADDQNFNDEEENFAKLFKKELEKEETLEKGTIKEGLVVSINENDGYAMVSVGGKTEGRLALNEITDEKGQLLYQKNDPIIVHVSEKGEHPSVSYKKAISQQKIQAKIEELGENYENAIIEGKIVGKNKGGYIVESQGVEYFLSRSHSSLKNDANHIGKRVKACIIRVDKENHSINISRKRFFEVNDKRQLEVSKELLEATEPVLGVVRQITPFGIFVEAKGIEGLVHYSEISHKGPVNPEKYYKEGDEVYVKAIAYDAEKRRLSLSIKATIEDPWEEIQDKLKPGYAIKVVVSNIEHYGVFVDIGNDIEGFLHVSEISWDKNVSHPNNYLSVGQEIDVKIIDIDPKNRRLRVSLKQLTNRPFDVFESKHQVGDVLEGKVATLTDFGAFLNLGGVDGLLHNHDAFWDKDKKCKDHYKIGDVIKVKILKINKKDKKISLSAKHLVTSPTEEFAQKHKTDSVIQGKVVSIKDFGVFINADGIDVLIKNEDLNPLKKDEIKIGQEITCVVVAIEKSNNKVRASVHRLERKKEKEELQAFNTSDDKMTLGDILKEKL,failed
11,MFLKIPFKILRLATAYVRIRVKNIILKLKLVFGKNVFIGSNVVIDPGYHWLISIGNNSAITNGVTILSHDGSLSRHTGYTKIGKVSIGSNTFIGVKSIILPGVSIGNNVIIGAGSVVTKDIPDNSVAIGNPAVVVGSIKDYINKHKRMIRTSEVYECQSLLKDNIRDFKGEIGYVKTNFENHEDL,failed
12,MVIDLAVDCQRQAAVLRQQRLRTARRVDDGQTLVHQDGTGIDVHAAPVRPAMALPLRTFQGLPAQGLQVVAGLQAEDTEDGTHGNTPGKVVMGGRRINTVQDITHKKNPHRPMRVFWKLGVCVGTSPSRRPASAAHDYSRADCCGDWRWRRWTETMSWADRIPLSAATQLLRWQPSRAGKPGIPRPPRDRGRVARIMSPPSSEASAMTPRIGRLAFAALIPLVLLQGCSTTAPRTEPAKLRQLEQTAADGSFDSIWEVASQLESRNDPRAIGWYERAAATTPWTFRNALAELALGRIWASGTLTHADSPYIDQRAALRASPRKGERWYLAAAMHGNPYAIRELAKFHRERGEAAAALRWDLRVAIYERAASGPSGLPAAIAPRDGDIHPLVRDIQRRARGGDAEAQVDLGALYEKGMGGMNRDGAEALRWYRRAADQGNVYGQYFYALLLGRGSSGVTRDEETAAIWFAKASAQRFYIADASHWREAIKPPFWTFD,failed
13,MTMEALQFLLAAPPGAYDPVARTIEDEPRPSQPPTSALALDIRGLRKSFGDNDVLRGIDLHIPAGQFVTIVGRSGCGKSTLLRLIAGLETPTAGHIVFGEDKLPGDVRVMFQEPRLLPWARVLANVEVGLGTERNSPDARARADAALIEVGLDDKRGEWPAVLSGGQKQRVALARALVSRPRVLAFDEPLGALDALTRIAMQRLLEQVWQAQGFTAILVTHDVAEAVALADRVLVIEDGRIAKDLPIDLPRPRQRGSAELAALEGEILRDLLKGAEDTFEL,failed
14,MKQLLEFIPLILFFAVYKLVGVQAAAITLVLATILQLILVRILFKKLETSQWIVGLSVIIFGILTAYFDDLAFLKWKVTIINGLFAAVLLISQYVFHKPVVKMLLAKELSLPTQVWNRLNLGWAIFFIICMLINIIISQLFSDDTWATFKTFGFTGLSLVAVIITGIYLYPYIKKLENNNEQK,failed
15,MPYITIEGGALTREQKSELIRKVTEVASEVMQIPMEFFLCTVKELPDENIGIGGRTIDLIKLEHHHHHH,not failed
16,QDWLTFQKKHITNTRDVDCDNIMSTNLFHCKDKNTFIYSRPEPVKAICKGIIASKNVLTTSEFYLSDCNVTSRPCKYKLKKSTNKFCVTCENQAPVHFVGVGSC,not failed
17,SQLINLPMDQILYLSTSDIKHHVHLQTIHTLMDIRANLADFKKIHKKLYPCHRSYIVNTDMIISVNKTNYEATLINGQVLPVSRMKIGKIAQIVEERGR,not failed
18,MVKGKVINLHPTSSRFFKIGIKHYERGEIELAIERLKRALELDSKNIEIKFNLAGLLAQIGDFESSNKLLTELTTDNPEFYDSLFGLGCNFFEMGKLREAKHFLRRYLKLSNNTEFKEAAEDLLDFIETQQEFEREQKEMEKLTKLLERGNFLLENGRYEDAVKYFKMILAKDDTIFAARNNLSLAYFYMGEIEKAIHEAKKVLEIDKYNVYANCNLAFFYSTIGKTKELKKQLKTILELKTYDHKDKIKVLDTLIKLNQHAAIVDRAGELFEITKEPYFRHIQAISLYNTKQYIKAKKIWKDLKKNYNMPEIKIDYFLKKIDDVMKTFKKDTIDYFETGFGNLSKLEEKEFRSQLQKHIDMYFSQTFEENAKRIMDIIAENVKLNNEDKDAISQLLNALPLEKQRLNFTAIAAIVYYVYKKYLLRQKVKQKDVAERFGISQAVFSKWFKEFKGLLLGEDV,failed
